According to patent US8895526B2, “Identification of RNAI targets and use of RNAI for rational therapy of chemotherapy-resistant leukemia and other cancers” (Cold Spring Harbor Laboratory, priority 2009, dated 2014):

B1: Kcnh7.2642: shRNA, SEQ ID NO: 134 (nucleic acid)
chain: TGCTGTTGACAGTGAGCGCATGGTTCATCTTTATGCCAAATAGTGAAGCCACAGATGTATTTGGCATAAAGATGAACCATTTGCCTACTGCCTCGGA
B2: Slc6a13.1196: shRNA, SEQ ID NO: 182 (nucleic acid)
chain: TGCTGTTGACAGTGAGCGACTGGGACTAGATAGCCAGTTTTAGTGAAGCCACAGATGTAAAACTGGCTATCTAGTCCCAGGTGCCTACTGCCTCGGA
B3: F10.1044: shRNA, SEQ ID NO: 117 (nucleic acid)
chain: TGCTGTTGACAGTGAGCGACACCATCTTGAATGAGTTCTATAGTGAAGCCACAGATGTATAGAACTCATTCAAGATGGTGCTGCCTACTGCCTCGGA
B4: Cacna1f.3314: shRNA, SEQ ID NO: 99 (nucleic acid)
chain: TGCTGTTGACAGTGAGCGACTGGCCTGCGCTACTATACAATAGTGAAGCCACAGATGTATTGTATAGTAGCGCAGGCCAGCTGCCTACTGCCTCGGA
B5: Acsl1.3559: shRNA, SEQ ID NO: 88 (nucleic acid)
chain: TGCTGTTGACAGTGAGCGCCAGCATTTCACTTTACTGCAATAGTGAAGCCACAGATGTATTGCAGTAAAGTGAAATGCTGTTGCCTACTGCCTCGGA
B6: Trpm4.2813: shRNA, SEQ ID NO: 188 (nucleic acid)
chain: TGCTGTTGACAGTGAGCGACAAGATTGTCATAGTGAGCAATAGTGAAGCCACAGATGTATTGCTCACTATGACAATCTTGGTGCCTACTGCCTCGGA
B7: Park2.2222: shRNA, SEQ ID NO: 158 (nucleic acid)
chain: TGCTGTTGACAGTGAGCGCAACAGAGAAAGTGCCTATAAATAGTGAAGCCACAGATGTATTTATAGGCACTTTCTCTGTTATGCCTACTGCCTCGGA
B8: Slc15a3.1086: shRNA, SEQ ID NO: 180 (nucleic acid)
chain: TGCTGTTGACAGTGAGCGCCTGGTTCTATTGGAGCATCAATAGTGAAGCCACAGATGTATTGATGCTCCAATAGAACCAGTTGCCTACTGCCTCGGA
B9: Vnn3.345: shRNA, SEQ ID NO: 189 (nucleic acid)
chain: TGCTGTTGACAGTGAGCGAACGCCAGAAGATGGAATCTATTAGTGAAGCCACAGATGTAATAGATTCCATCTTCTGGCGTCTGCCTACTGCCTCGGA
B10: EG277089.605: shRNA, SEQ ID NO: 115 (nucleic acid)
chain: TGCTGTTGACAGTGAGCGCCTCAATCTCATTGGTGGCTTATAGTGAAGCCACAGATGTATAAGCCACCAATGAGATTGAGATGCCTACTGCCTCGGA
B11: Plod3.2501: shRNA, SEQ ID NO: 168 (nucleic acid)
chain: TGCTGTTGACAGTGAGCGAACCGTTGATATCCACATGAAATAGTGAAGCCACAGATGTATTTCATGTGGATATCAACGGTGTGCCTACTGCCTCGGA
B12: Syt17.721: shRNA, SEQ ID NO: 184 (nucleic acid)
chain: TGCTGTTGACAGTGAGCGCCGAGGAGATCATGTCCAAGTATAGTGAAGCCACAGATGTATACTTGGACATGATCTCCTCGTTGCCTACTGCCTCGGA
B13: Gab3.527: shRNA, SEQ ID NO: 125 (nucleic acid)
chain: TGCTGTTGACAGTGAGCGCGACGGAAACACTAATAGTGTATAGTGAAGCCACAGATGTATACACTATTAGTGTTTCCGTCATGCCTACTGCCTCGGA
B14: Atp6v0d1.481: shRNA, SEQ ID NO: 93 (nucleic acid)
chain: TGCTGTTGACAGTGAGCGACACCAGCGTTCAATAGCTGAATAGTGAAGCCACAGATGTATTCAGCTATTGAACGCTGGTGCTGCCTACTGCCTCGGA
B15: Ncf1.2370: shRNA, SEQ ID NO: 150 (nucleic acid)
chain: TGCTGTTGACAGTGAGCGCCAGAAGATCAATGCACATAAATAGTGAAGCCACAGATGTATTTATGTGCATTGATCTTCTGTTGCCTACTGCCTCGGA
B16: Centa1.1387: shRNA, SEQ ID NO: 105 (nucleic acid)
chain: TGCTGTTGACAGTGAGCGCCAGAACCTCATTAAAGTTGAATAGTGAAGCCACAGATGTATTCAACTTTAATGAGGTTCTGATGCCTACTGCCTCGGA
B17: Plod3.3138: shRNA, SEQ ID NO: 169 (nucleic acid)
chain: TGCTGTTGACAGTGAGCGACTCAGCCTCACTTTCAATAAATAGTGAAGCCACAGATGTATTTATTGAAAGTGAGGCTGAGGTGCCTACTGCCTCGGA
B18: Flot2.1039: shRNA, SEQ ID NO: 120 (nucleic acid)
chain: TGCTGTTGACAGTGAGCGACAAGGTGACATCAGAAGTAAATAGTGAAGCCACAGATGTATTTACTTCTGATGTCACCTTGCTGCCTACTGCCTCGGA
B19: Hpgd.1070: shRNA, SEQ ID NO: 132 (nucleic acid)
chain: TGCTGTTGACAGTGAGCGCAAACTAGGTTATAACCTATAATAGTGAAGCCACAGATGTATTATAGGTTATAACCTAGTTTTTGCCTACTGCCTCGGA
B20: Gdi1.1120: shRNA, SEQ ID NO: 129 (nucleic acid)
chain: TGCTGTTGACAGTGAGCGCCAACAGGAAGTCAGACATCTATAGTGAAGCCACAGATGTATAGATGTCTGACTTCCTGTTGATGCCTACTGCCTCGGA
B21: EG408196.85: shRNA, SEQ ID NO: 116 (nucleic acid)
chain: TGCTGTTGACAGTGAGCGCAGCGAGAACCAGTGAGAAATATAGTGAAGCCACAGATGTATATTTCTCACTGGTTCTCGCTTTGCCTACTGCCTCGGA
B22: Plcb2.3742: shRNA, SEQ ID NO: 167 (nucleic acid)
chain: TGCTGTTGACAGTGAGCGCAGGGACCTTAATACTCAGATATAGTGAAGCCACAGATGTATATCTGAGTATTAAGGTCCCTTTGCCTACTGCCTCGGA
B23: Gdi1.2355: shRNA, SEQ ID NO: 130 (nucleic acid)
chain: TGCTGTTGACAGTGAGCGACTCTAGTATATTTCACAGAAATAGTGAAGCCACAGATGTATTTCTGTGAAATATACTAGAGCTGCCTACTGCCTCGGA

What follows are molecules tested on tet-on competent MLL/AF9+Nras AML (assay: Pooled negative selection RNAi screening (deep sequencing)). Settings: deep sequencing reads, On Dox compared to T0.
Format: cell-based, mouse
Text: (§1) In addition to the analysis of single shRNAs for inhibitory effects in vitro and in vivo, the combination of tet-on competent cancer models and tet-regulatable shRNA expression vectors allowing for monitoring shRNA expression through fluorescent and other reporter genes (e.g. TRMPV and derivates) facilitates pooled shRNA negative selection screening (FIG. 37). In such approaches a pool of over 1,000 shRNAs are retrovirally transduced into tet-on competent cancer models (here MLL/AF9+Nras AML) and selected for shRNA containing cells by either drug selection (e.g. G418) or fluorescence-activated cell sorting (FACS). Selected cell populations harboring a library of shRNAs then can be cultured in the absence or presence of doxycyline (off dox and on dox, respectively) or injected into syngeneic recipient mice that are either treated with doxycyline or left untreated.
(§2) The representation of each shRNA within the pool can be effectively assessed by deep sequencing of shRNA cassettes in a given cell population. For this, genomic DNA is extracted from leukemia cells containing the shRNA pool, and the shRNA guide or passenger strand (21-22 target gene specific nucleotides of the shRNA) by PCR using primers specific for common sequences flanking the gene specific part of the shRNA (e.g. miR30 19 nt loop and miR30 common 3′ sequence). The primers also contain 5′-adapters required for deep sequencing (e.g. for Illumina/Solexa sequencing primers are p5+mir3: 5′-[…]-3′ (SEQ ID NO: 215) and p7+Loop: 5′-[…]-3′ (SEQ ID NO: 216)). Deep sequencing is subsequently performed using a primer binding the flanking nucleotide sequence next to the target gene specific part of the shRNA (for Illumina/Solexa platforms the primer is mir30EcoR1Seq: 5′-TAGCCCCTTGAATTCCGA GGCAGTAGGCA-3′ (SEQ ID NO: 217)).
(§3) The use of shRNA vectors that allow for monitoring of shRNA expression through fluorescent and other reporter genes (e.g. TRMPV) in combination with tet-on competent mouse models facilitates the isolation of pure shRNA expressing cell populations (e.g. by FACS, for TRMPV by sorting of Venus/dsRed double positive cells (FIG. 38). This selection of shRNA expressing cells prior to DNA isolation strongly reduces the background caused by cell populations with insufficient shRNA induction, which are predicted to contain genomic representation of the whole shRNA library without shRNA specific shifts in representation. The final readout is based on the comparison of shRNA representation (i.e. deep sequencing read numbers) before the assay (t0) or from cell populations left without doxycycline treatment (off dox) to those where shRNA were induced and cells subsequently sorted for shRNA expressing cells (on dox). shRNA with inhibitory effects are predicted to loose representation (show less reads) on dox compared to t0 and off dox.
(§4) This pooled is RNAi screening strategy can be applied to rapidly survey inhibitory effects of large pools of shRNAs (˜1000 at a time) in different tet-on competent cancer models and normal control cells (FIG. 39). For example, a pool of 1166 shRNAs targeting 836 predominantly druggable genes associated with MLL fusion proteins in human leukemia and mouse models of MLL/AF9-induced AML (MLL cure library) was analyzed in pooled negative selection screening in tet-on competent MLL/AF9+Nras AML and immortalized murine embryonic fibroblasts (Mef) in parallel. To establish and validate this screening approach, the pool also contained 64 control shRNAs each of which have been previously analyzed for inhibitory effects in both AML cells and Mefs using the same experimental system (FIG. 40).
(§5) After pooling of 1166 experimental and 64 control shRNAs the presence of shRNAs was verified by deep sequencing of shRNAs within the plasmid vector pool (FIG. 41). […]
In the case of B1, the “Fold depletion in AML” value is reported as 10.58 Fold. B2 was tested, and the “Fold depletion in AML” value was 9.77 Fold. With B3 the “Fold depletion in AML” value was 10.52 Fold. B4 was tested, and the “Fold depletion in AML” value was 12.52 Fold. With B5 the “Fold depletion in AML” value was 10.18 Fold. B6 was tested, and the “Fold depletion in AML” value was 20.52 Fold. For B7, the “Fold depletion in AML” value was 11.36 Fold. B8 was tested, and the “Fold depletion in AML” value was 10.29 Fold. For B9, the “Fold depletion in AML” value was 10.19 Fold. In the case of B10, the “Fold depletion in AML” value is reported as 25.37 Fold. B11 was tested, and the “Fold depletion in AML” value was 12.30 Fold. B12 was tested, and the “Fold depletion in AML” value was 10.25 Fold. In the case of B13, the “Fold depletion in AML” value is reported as 10.22 Fold. For B14, the “Fold depletion in AML” value was 12.03 Fold. With B15 the “Fold depletion in AML” value was 10.06 Fold. With B16 the “Fold depletion in AML” value was 11.44 Fold. With B17 the “Fold depletion in AML” value was 21.28 Fold. B18 was tested, and the “Fold depletion in AML” value was 10.89 Fold. With B19 the “Fold depletion in AML” value was 10.43 Fold. With B20 the “Fold depletion in AML” value was 24.81 Fold. B21 was tested, and the “Fold depletion in AML” value was 20.79 Fold. B22 was tested, and the “Fold depletion in AML” value was 10.81 Fold. B23 was tested, and the “Fold depletion in AML” value was 9.92 Fold.

What follows are molecules tested on immortalized murine embryonic fibroblasts (Mef) in the same assay as above. Settings: deep sequencing reads, on dox compared to initial representation.
Format: cell-based
Text: as §1, §2, §3, §4, §5
B1 was tested, and the “Fold depletion in Mef” value was 0.92 Fold. For B2, the “Fold depletion in Mef” value was 1.52 Fold. With B3 the “Fold depletion in Mef” value was 1.25 Fold. B4 was tested, and the “Fold depletion in Mef” value was 2.14 Fold. For B5, the “Fold depletion in Mef” value was 1.45 Fold. For B6, the “Fold depletion in Mef” value was 2.33 Fold. B7 was tested, and the “Fold depletion in Mef” value was 1.32 Fold. With B8 the “Fold depletion in Mef” value was 2.32 Fold. B9 was tested, and the “Fold depletion in Mef” value was 2.59 Fold. In the case of B10, the “Fold depletion in Mef” value is reported as 2.02 Fold. B11 was tested, and the “Fold depletion in Mef” value was 2.62 Fold. B12 was tested, and the “Fold depletion in Mef” value was 0.86 Fold. For B13, the “Fold depletion in Mef” value was 0.46 Fold. With B14 the “Fold depletion in Mef” value was 1.90 Fold. In the case of B15, the “Fold depletion in Mef” value is reported as 2.33 Fold. With B16 the “Fold depletion in Mef” value was 0.77 Fold. B17 was tested, and the “Fold depletion in Mef” value was 0.71 Fold. B18 was tested, and the “Fold depletion in Mef” value was 2.72 Fold. B19 was tested, and the “Fold depletion in Mef” value was 1.10 Fold. With B20 the “Fold depletion in Mef” value was 1.98 Fold. With B21 the “Fold depletion in Mef” value was 0.25 Fold. In the case of B22, the “Fold depletion in Mef” value is reported as 2.25 Fold. With B23 the “Fold depletion in Mef” value was 2.86 Fold.
